Consider 3 molecules from publication PMC10758951 (2023).

B2: 2AcK (peptide)
chain: K(Ac)LLK(Ac)HLYH

Test [1] deals with B2. The test is described as follows: SPR. In general terms: SPR reads the build-up and loss of mass on a sensor chip optically.
Test [2] addresses B2. The experiment in a line: ITC.
The next test concerns the target BRD4-BD1 42-168 (Homo sapiens, UniProt O60885). The experiment in a line: SPR.

No end group written: not given here.

B1: BRD3-BD1 25-147 (protein)
chain: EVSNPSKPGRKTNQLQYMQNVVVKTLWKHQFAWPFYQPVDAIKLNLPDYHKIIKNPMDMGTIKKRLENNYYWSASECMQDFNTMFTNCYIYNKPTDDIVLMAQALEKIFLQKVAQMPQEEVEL
Consider B1, for which the Kd (commonly the free concentration of one partner at which half of the binding sites on the other are occupied at equilibrium, for simple one-to-one binding) is 2000 nM in the test with 2AcK [1] and 10000 nM with 2AcK [2]. For the molecule B2, binding with BRD4-BD1 42-168 was characterised by a dissociation constant (Kd) of 1000 nM.

B3: BRD2-BD1 65-194 (protein)
chain: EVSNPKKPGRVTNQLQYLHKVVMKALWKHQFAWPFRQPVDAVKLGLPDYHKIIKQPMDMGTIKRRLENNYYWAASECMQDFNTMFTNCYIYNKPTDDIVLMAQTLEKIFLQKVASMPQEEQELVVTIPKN
Turning to B3, in the test with 2AcK [1], the Kd was found to be 2000 nM.
